# Results from the supplement of paper PMC10567573.
# B1: PTPRD (parent)
# chain: FICQATGDPRPKIVWNKKGKKVSN
# Variants of: B1
# Assay: protein stability index of a GFP-peptide fusion (GPS, HEK-293T) (PSI 1-6); higher = more stable
# Conditions: c terminus: a fixed tail appended
# 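Also: lentivirally expressed fusions sorted by FACS into six bins by GFP to DsRed ratio, PSI derived from sequencing read proportions per bin multiplied by bin number.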
row,Variant,protein stability index
1,FICQATGDPRPKIVWNKKGKKVQN [S23Q],2.07
2,FICQATGDPRPKIVWNKKGKKVGN [S23G],2.28
3,FICQATGDPRPKIVWNKKGKKVAN [S23A],2.49
4,FICQATGDPRPKIVWNKKGKKVTN [S23T],2.59
5,FICQATGDPRPKIVWNKKGKKVMN [S23M],2.29
6,FICQATGDPRPKIVWNKKGKKVCN [S23C],2.69
7,FICQATGDPRPKIVWNKKGKKVKN [S23K],2.52
8,FICQATGDPRPKIVWNKKGKKVDN [S23D],2.52
9,FICQATGDPRPKIVWNKKGKKVIN [S23I],1.84
10,FICQATGDPRPKIVWNKKGKKVRN [S23R],2.08
11,FICQATGDPRPKIVWNKKGKKVLN [S23L],2.14
12,FICQATGDPRPKIVWNKKGKKVPN [S23P],2.15
13,FICQATGDPRPKIVWNKKGKKVYN [S23Y],2
14,FICQATGDPRPKIVWNKKGKKVSD [N24D],2.05
15,FICQATGDPRPKIVWNKKGKKVSA [N24A],1.97
16,FICQATGDPRPKIVWNKKGKKVSG [N24G],2.22
17,FICQATGDPRPKIVWNKKGKKVSE [N24E],2.37
18,FICQATGDPRPKIVWNKKGKKVSF [N24F],1.89
19,FICQATGDPRPKIVWNKKGKKVSC [N24C],2.23
20,FICQATGDPRPKIVWNKTGKKVSN [K18T],1.51
21,FICQATGDPRPKIVWNKVGKKVSN [K18V],1.45
22,FICQATGDPRPKIVWNKCGKKVSN [K18C],1.72
23,FICQATGDPRPKIVWNKSGKKVSN [K18S],1.61
24,FICQATGDPRPKIVWNKWGKKVSN [K18W],2.01

row,Variant,protein stability index
1,FICQATGDPRPKIVWNKGGKKVSN [K18G],2.04
2,FICQATGDPRPKIVWNKHGKKVSN [K18H],2.35
3,FICQATGDPRPKIVWNKMGKKVSN [K18M],1.46
4,FICQATGDPRPKIVWNKIGKKVSN [K18I],1.24
5,FICQATGDPRPKIVWNKNGKKVSN [K18N],1.98
6,FICQATGDPRPKIVWNKYGKKVSN [K18Y],1.94
7,FICQATGDPRPKIVWNKDGKKVSN [K18D],1.95
8,FICQATGDPRPKIVWNKEGKKVSN [K18E],2.41
9,FICQATGDPRPKIVWNKPGKKVSN [K18P],1.97
10,FICQATGDPRPKIVWNKRGKKVSN [K18R],2.2
11,FICQATGDPRPKIVWNKQGKKVSN [K18Q],1.74
12,FICQATGDPRPKIVWNKAGKKVSN [K18A],1.93
13,FICQATGDPRPKIVWNKFGKKVSN [K18F],1.38
14,FICQATGDPRPKIVWNKLGKKVSN [K18L],1.67
15,FICQATGDPRPKIVWNKKDKKVSN [G19D],1.71
16,FICQATGDPRPKIVWNKKTKKVSN [G19T],2.14
17,FICQATGDPRPKIVWNKKYKKVSN [G19Y],1.27
18,FICQATGDPRPKIVWNKKPKKVSN [G19P],1.74
19,FICQATGDPRPKIVWNKKCKKVSN [G19C],1.26
20,FICQATGDPRPKIVWNKKMKKVSN [G19M],2.22
21,FICQATGDPRPKIVWNKKWKKVSN [G19W],1.84
22,FICQATGDPRPKIVWNKKFKKVSN [G19F],2.51
23,FICQATGDPRPKIVWNKKEKKVSN [G19E],1.8
24,FICQATGDPRPKIVWNKKHKKVSN [G19H],1.9

row,Variant,protein stability index
1,FICQATGDPRPKIVWNKKRKKVSN [G19R],2.05
2,FICQATGDPRPKIVWNKKKKKVSN [G19K],1.87
3,FICQATGDPRPKIVWNKKVKKVSN [G19V],1.71
4,FICQATGDPRPKIVWNKKQKKVSN [G19Q],2.4
5,FICQATGDPRPKIVWNKKNKKVSN [G19N],1.56
6,FICQATGDPRPKIVWNKKIKKVSN [G19I],1.53
7,FICQATGDPRPKIVWNKKAKKVSN [G19A],2.23
8,FICQATGDPRPKIVWNKKSKKVSN [G19S],1.7
9,FICQATGDPRPKIVWNKKGKKLSN [V22L],2.36
10,FICQATGDPRPKIVWNKKGKKMSN [V22M],2.35
11,FICQATGDPRPKIVWNKKGKKNSN [V22N],2.16
12,FICQATGDPRPKIVWNKKGKKDSN [V22D],2.86
13,FICQATGDPRPKIVWNKKGKKASN [V22A],2
14,FICQATGDPRPKIVWNKKGKKTSN [V22T],2.29
15,FICQATGDPRPKIVWNKKGKKWSN [V22W],2.35
16,FICQATGDPRPKIVWNKKGKKISN [V22I],2.17
17,FICQATGDPRPKIVWNKKGKKPSN [V22P],2.62
18,FICQATGDPRPKIVWNKKGKKGSN [V22G],2.58
19,FICQATGDPRPKIVWNKKGKKRSN [V22R],2.04
20,FICQATGDPRPKIVWNKKGKKSSN [V22S],2.41
21,FICQATGDPRPKIVWNKKGKKCSN [V22C],2.13
22,FICQATGDPRPKIVWNKKGKKFSN [V22F],2.4
23,FICQATGDPRPKIVWNKKGKKYSN [V22Y],2.47
24,FICQATGDPRPKIVWNKKGKKESN [V22E],2.34

row,Variant,protein stability index
1,FICQATGDPRPKIVWNKKGKKHSN [V22H],2.46
2,FICQATGDPRPKIVWNKKGKKKSN [V22K],2.66
3,FICQATGDPRPKIVWNKKGKKQSN [V22Q],2.47
4,FICQATGDPRPKIVTNKKGKKVSN [W15T],2.85
5,FICQATGDPRPKIVQNKKGKKVSN [W15Q],2.73
6,FICQATGDPRPKIVRNKKGKKVSN [W15R],2.6
7,FICQATGDPRPKIVVNKKGKKVSN [W15V],2.76
8,FICQATGDPRPKIVSNKKGKKVSN [W15S],2.7
9,FICQATGDPRPKIVMNKKGKKVSN [W15M],2.9
10,FICQATGDPRPKIVCNKKGKKVSN [W15C],2.57
11,FICQATGDPRPKIVYNKKGKKVSN [W15Y],2.25
12,FICQATGDPRPKIVNNKKGKKVSN [W15N],2.53
13,FICQATGDPRPKIVDNKKGKKVSN [W15D],2.73
14,FICQATGDPRPKIVKNKKGKKVSN [W15K],2.12
15,FICQATGDPRPKIVINKKGKKVSN [W15I],2.26
16,FICQATGDPRPKIVENKKGKKVSN [W15E],2.67
17,FICQATGDPRPKIVHNKKGKKVSN [W15H],2.15
18,FICQATGDPRPKIVPNKKGKKVSN [W15P],2.56
19,FICQATGDPRPKIVGNKKGKKVSN [W15G],2.26
20,FICQATGDPRPKIVLNKKGKKVSN [W15L],2.16
21,FICQATGDPRPKIVANKKGKKVSN [W15A],2.48
22,FICQATGDPRPKIVFNKKGKKVSN [W15F],2.5
